Test results taken from US20050130265, “Aiolos, Helios, Daedalos and Ikaros: genes, polypeptides, regulatory elements and uses thereof” (published 2005).

Biological target: T1, Aiolos (GST fusion) (Mus musculus, UniProt O08900 SEQ:1-507)
T1 chain: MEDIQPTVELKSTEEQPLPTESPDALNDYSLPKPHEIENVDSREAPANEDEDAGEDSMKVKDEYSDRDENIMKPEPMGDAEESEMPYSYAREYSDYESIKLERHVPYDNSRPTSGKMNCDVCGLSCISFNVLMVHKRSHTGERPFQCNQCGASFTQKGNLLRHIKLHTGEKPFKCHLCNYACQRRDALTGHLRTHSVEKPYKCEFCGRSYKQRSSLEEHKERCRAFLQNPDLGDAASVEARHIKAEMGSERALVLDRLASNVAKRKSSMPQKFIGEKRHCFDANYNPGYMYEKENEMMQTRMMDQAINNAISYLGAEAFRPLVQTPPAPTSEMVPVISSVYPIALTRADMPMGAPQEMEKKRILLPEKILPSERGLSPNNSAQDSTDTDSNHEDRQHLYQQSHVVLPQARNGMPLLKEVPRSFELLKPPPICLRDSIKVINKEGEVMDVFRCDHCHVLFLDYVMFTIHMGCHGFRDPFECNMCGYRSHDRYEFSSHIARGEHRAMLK
Test: EMSA; 0.5 ug protein, 1-2 ng DNA; binding stated generally for Ikaros consensus sites
Conditions: tags: GST
Method: DNA binding assays (EMSA) were performed essentially as described in Molnar et al. (1994) Mol. Cell. Biol. 14, 8292-8303. GST-Aiolos and Ikaros fusion proteins and their GST fusion partner (0.5 μg) were tested for binding to the IkBD1-[…] (SEQ ID NO:11) oligonucleotide which contains a high affinity Ikaros binding site (100,000 cpm/reaction which equals 1 to 2 ngs of DNA). Competition assays were performed with Ik-BS 1 and with Ik-BS8 TCAGCTTTTGGGggTACCCTGTCA (SEQ ID NO:12) oligonucleotides used at 5-100× molar excess.

B1: IkBS1 (dsDNA)
DNA 1: TCAGCTTTTGGGAATACCCTGTCA
DNA 2: TGACAGGGTATTCCCAAAAGCTGA
**Q.** Does B1 bind?
**A.** Result: binds
